These results are taken from publication doi:10.1101/2020.04.28.065904.

The assay has as its target aa defensin C (mature Aedes albopictus defensin C peptide) (Aedes albopictus). Put plainly: ELISA. For orientation: An ELISA detects its analyte on a solid surface through an enzyme-linked reagent.

As to “JEV ED III protein (ED III domain of the E protein, recombinant) (domain or fragment)”, the absorbance is 1.17.

The substance “JEV E protein (recombinant) (natural protein)” registered an absorbance of 0.95.
